According to US20210207126A1:
Blank lines part the entries; values can stand above or below the binder they belong to.

Assays:
[1] = target: CD137 antigen used to stain yeast (human) (UniProt Q07011); assay: flow cytometry of yeast displaying the scFv, CD137 binding against scFv display; file 01-5112.2-B5.fcs; kind of statistic and antigen concentration not given; the boxed gate is set on scFv display
[2] = target: CD137 antigen used to stain yeast (human) (UniProt Q07011); assay: flow cytometry of yeast displaying the scFv, CD137 binding against scFv display; file 01-display-C2.fcs; antigen concentration not given
[3] = target: CD137 antigen used to stain yeast (human) (UniProt Q07011); assay: flow cytometry of yeast displaying the scFv, quadrant plot; the other quadrants read 0.39% (upper left), 34.3% (lower left), 3.83% (lower right)
[4] = target: CD137 antigen used to stain yeast (human) (UniProt Q07011); assay: flow cytometry of yeast displaying the clone after TEV protease treatment, CD137 binding against the axis printed as scFv display; file 01-2328-B11.fcs; antigen concentration not given
[5] = target: CD137 antigen used to stain yeast (human) (UniProt Q07011); assay: flow cytometry of yeast displaying the scFv clone after TEV protease treatment, CD137 binding against scFv display; file 01-2317-B8.fcs; antigen concentration not given

Chain of CD137 antigen used to stain yeast (human) (Q07011 24-186 limits assumed): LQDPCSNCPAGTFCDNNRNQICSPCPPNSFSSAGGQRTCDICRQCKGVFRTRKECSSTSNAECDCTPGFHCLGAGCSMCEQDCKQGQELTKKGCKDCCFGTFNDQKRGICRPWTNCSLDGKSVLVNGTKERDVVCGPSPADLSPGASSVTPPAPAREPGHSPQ

Y (signal on the CD137 binding axis, FL2-A :: PE-A) [1]: 19200
Y (signal on the CD137 binding axis, FL2-A :: PE-A) [2]: 27800
percent of cells in the upper right quadrant (scFv display positive and CD137 binding positive) [3]: 61.4%
B1: scFv of TY21242 displayed on yeast (scFv, part only; not given: scFv linker, Aga2, tag, V domains shown, not shown: another chain or arm of the molecule; large carriers; small tags and cut ends)
VL: DIQLTQSPSSLSASVGDRVTITCRASQSIGSYLAWYQQKPGKAPKLLIYDASNLETGVPSRFSGSGSGTDFTLTISSLQPEDFATYYCQQGYYLWTFGQGTKVEIK
VH: EVQLVESGGGLVQPGGSLRLSCAASGFSLSTGGVGVGWIRQAPGKGLEWLALIDWADDKYYSPSLKSRLTISRDNSKNTLYLQLNSLRAEDTAVYYCARGGSDTVIGDWFAYWGQGTLVTVSS

Y (signal on the CD137 binding axis, FL2-A :: PE-A) [4]: 7270
B2: CD137 activatable antibody clone B13439 (scFv on yeast, masking peptide cleaved by TEV protease) (scFv, part only; not given: cleavage stub, scFv linker, Aga2, tag, V domains shown, not shown: another chain or arm of the molecule; large carriers; small tags and cut ends)
VL: B1 VL
VH: B1 VH

Y (signal on the CD137 binding axis, FL2-A :: PE-A) [5]: 10100
B3: CD137 activatable antibody clone B13428 (scFv on yeast, masking peptide cleaved by TEV protease) (scFv, part only; not given: cleavage stub, scFv linker, Aga2, V domains shown, not shown: another chain or arm of the molecule; large carriers; small tags and cut ends)
VL: B1 VL
VH: B1 VH
